From US20100181197A1, “ISOELECTRIC POINT MARKERS” (GE HEALTHCARE BIO-SCIENCES AB, priority 2007, published 2010) come the findings set out here.

Data set [1] is described as follows: Experimentally determined pI-values of tryptic peptides focused in IPG strips. Format: physicochemical. To be noted: tryptic yeast peptides focused in IPG strips 3.7-4.05. The source says: Both methods are based on the equilibria of amino acid residues participating in reactions with water and can be described with one pK-value for each type of residue, which is independent of the nature of neighbouring amino acids. The consequence of this assumption is that for large groups of tryptic peptides, the same pI-value will be predicted. […] The approaches described above will result in the same pI-value for all these peptides. The value predicted at the Expasy server is 4.53, which can be compared with the value resulting from the experimental distribution, i.e. 4.49±0.075.
It would be expected that the presence of two negatively charged amino acid residues at limited distances from each other along the amino acid chain should result in an increase of the pK-values involved and a concomitant increase of the pI-value, while two positively charged residues at limited distances from each other along the peptide chain could be expected to give reversed effect, i.e. a decrease in pK-values and a concomitant decrease of the pI-value. In reality, no such effects can be detected. […] In the peptides, C-terminal amino acids are either lysine or arginine. […] This is explained by the presence of two oppositely charged amino acid residues in the chain, thereby favouring configurations with a short distance between the two residues. As a consequence, pK-values are affected also when these residues are separated by up to 5 amino acid residues. On the other hand, the presence of two equally charged residues favours configurations with the longest possible distance between the charged groups and for neighbouring charged residues, the average distance becomes too long to generate a detectable effect on pK and pI values.
The C-terminal, which in tryptic digests is either lysine or arginine contains both a positively charged group and a negatively charged group, gives notable effects on resulting pI-values only when the neighbouring group is charged. At larger distances, for peptides having two internal glutamic acid residues (no glutamic acid in position 1-6), the C-terminal amino acid being either lysine or arginine, the effect on pI is negligible (Table 2).
3.1 Yeast proteins (Saccharomyces cerevisiae, type II (1 gram) were dissolved in a 10 ml solution containing 50 mM Tris-HCl pH 8.0, 6 M urea and 10 mM DDT. The solution was allowed to stand for 1 hour at 37° C. and then allowed to react with iodoacetamide (addition of 250 μl 0.8 M iodoacetamide solution) for 30 minutes at room temperature to […] the cysteine groups. The sample was then sonicated 5 times for 30 seconds followed by dilution of the sample in 50 mM Tris-HCl, 1 mM CaCl2 (1 ml sample to 9 ml Tris-Cl buffer solution). 2.5 ml of diluted sample was added to a container with 250 μg trypsin (4 containers for 10 ml diluted sample) and digestion was allowed to proceed for 2 hours at 37° C. The sample was then concentrated by evaporation to 2 ml. 1 ml of digested concentrated sample was then added to a NAP-10 column pre-equilibrated with 15 ml 8 M urea solution and the sample was eluted with 1.5 ml urea. After a protein determination the sample was aliquoted and frozen until used.
A total of 6612 tryptic yeast peptides have been identified after focusing in IPG strips 3.7-4.05. Sixteen of these peptides have a structure (Table 5) which should give them a pI in close agreement with the pI of the marker. The average value found for these peptides 3.80±0.03 is in reasonable agreement with the value found for the pI marker.

A short description of data set [2]: Isoelectric focusing of CY5-labelled pI markers in IPG strips, fluorescence scan. It is filed as physicochemical. To be noted: for pI (exp) pI/marker: marker reacted at C-terminal lysine with CY5, experimental pI. On the procedure: The amino acid sequences of the isoelectric point markers were selected essentially as described in Shimura, K. et al, Electrophoresis, (2000), 21, 603-610. The markers contain a minimum of two […] groups with pK values in the vicinity of the pI value of the corresponding marker. The pH scale is a pH scale defined for isoelectric focussing in 8M urea and 20° C. as described in Bjellqvist, B. et al, Electrophoresis, (1993), 14, 1357-1365, Bjellqvist, B. et al, Electrophoresis, (1994), 15, 529-539.
3.2 Sample application was performed with polyacrylamide gel pieces, cast as 1 mm thick gel of the size 260×110 mm on a GelBond PAGE film. In addition to acrylamide (38.8 gram/litre) and bisacrylamide (1.2 gram/litre) the gel polymerising solution contained 15.0 mM Immobiline pK 3.6 and 5.9 mM Immobiline pK 9.3. The polymerisation initiators used were ammonium persulfate and tetramethyl ethylenediamine. The gel was extensively washed in water (10 wash cycles of 20 minutes using 200 ml water/wash). To the last wash was added 2% glycerol. The gel was then dried and cut to generate a number sample application gel pieces of the size 43×7 mm.
Four, 22 cm long IPG strips were re-swollen overnight in 250 μl 8 M urea solution containing 1% Pharmalyte pH 2.5-5 and a trace of bromophenol blue. In parallel, four sample application gel pieces were re-swollen in 315 μl sample solution containing 300 μg yeast protein in 8 M urea to which 0.3 μg of the pI marker had been added.
The four re-swollen IPG strips were positioned in a ceramic manifold in the IPGPHOR™ 3 with the GelBond film downwards. At the basic/cathodic ends of the IPG strips, paper electrode wicks (10×7×1 mm) to which 150 ul water had been added, were positioned on top of the IPG strips with an overlap of 2 mm to establish electric contact. At the anodic end, the wetted electrode wick was positioned 39 mm away from the acidic end of the IPG strip. The re-swollen acidic sample application gel was positioned with the gel side down as a bridge between the paper electrode wick and the IPG strip to give contact both with the paper wick and with the IPG strip through a 2 mm overlap region. The anodic and cathodic electrodes were finally positioned on the anodic and cathodic paper electrode wicks respectively and a light pressure was applied on the back of the sample application gels at the over lap regions with the paper electrode wicks and the IPG strips respectively.
3.3 Focusing was then performed at 20° C. with maximum current set to 50 uA/strip with the following voltage settings:
The focusing experiment was performed with current limitations from 1000V onwards; 2500 V was reached after 5 hours and the voltage only changed slowly to reach a final voltage of 2715 V after 52 hours 23 minutes and a total volthourproduct of 129 kilovolthours.
Upon completion, the gel strips were transferred to a TYPHOON™ 9400 imager and scanned in the fluorescence mode at 633 nm (FIG. 3). From the focusing positions the pI-value for the marker was determined to be 3.86.
Focusing was performed in IPG strips pH 3.4-4.9 containing a non-linear pH-gradient adjusted to give an even distribution of peptides in the focused strip. The experiment was run essentially as described in Example 3. For sample application, the same type of polyacrylamide gel applicator was used, this time re-swollen in an 8M urea solution containing 30 μg of the digested yeast proteins and 0.3 μg of each of the four pI-markers. Focusing was continued for 47 hours 45 minutes and the total volthourproduct was 207 kVh.

Ends that are not written are not given here.

Take “DGDQVVFMVSQK [tryptic yeast peptide identified after focusing in IPG strips 3.7-4.05]”: the pI-value in data set [1] turned out to be 3.760. Turning to “H2N-Gly-Glu-Gly-Gly-Glu-Gly-Glu-Lys(CY™5)-COOH (H-GEGGEGEK(Cy5)-OH) [xix]”, in data set [2], the “pI (exp) pI/marker” value is reported as 4.22. In turn, “DQDSAVVSSNIK [tryptic yeast peptide identified after focusing in IPG strips 3.7-4.05]” registered a pI-value in data set [1] of 3.823. In the case of “H2N-Glu-Gly-Glu-Gly-Lys(CY™5)-COOH (H-EGEGK(Cy5)-OH) [xxiii]”, the “pI (exp) pI/marker” value in data set [2] is listed as 4.28. “H2N-Asp-Gly-Asp-Gly-Lys(CY™5)-COOH (H-DGDGK(Cy5)-OH) [Compound xvii]”: the “pI-value for the marker from focusing positions” value in data set [2] (linear IPG pH 3.70-4.05, 22 cm strip, 8 M urea, 20° C., 129 kVh, 0.3 μg/strip) was 3.86. Moreover, in data set [2], the “pI (exp) pI/marker” value is recorded as 3.86. “DGDYNLVGSK [tryptic yeast peptide identified after focusing in IPG strips 3.7-4.05]”: the pI-value in data set [1] was 3.746. For “DTDYVPIVVVGNK [tryptic yeast peptide identified after focusing in IPG strips 3.7-4.05]”, in data set [1], the pI-value was found to be 3.840.

With “H2N-Gly-Glu-Glu-Gly-Gly-Lys(CY™5)-COOH [Compound xx]”, in data set [2], the “pI (exp) pI/marker” value turned out to be 4.44. With “H2N-Gly-Gly-Gly-Gly-Glu-Glu-Lys(CY™5)-COOH (H-GGGGEEK(Cy5)-OH) [Compound xxi]”, in data set [2], the “pI (exp) pI/marker” value is on record as 4.56.

Substance “DCDSLSSLVTR [tryptic yeast peptide identified after focusing in IPG strips 3.7-4.05]” registered a pI-value in data set [1] of 3.765.

In data set [1], “DLDAAQGTLK [tryptic yeast peptide identified after focusing in IPG strips 3.7-4.05]” yielded a pI-value of 3.815. Same read-out and setting: the value for “DADLLNSVVVQR [tryptic yeast peptide identified after focusing in IPG strips 3.7-4.05]” was 3.775. Regarding “H2N-Gly-Gly-Glu-Gly-Gly-Glu-Gly-Lys(CY™5)-COOH (H-GGEGGEGK(Cy5)-OH) [xxiv]”, the “pI (exp) pI/marker” value in data set [2] is given as 4.42. Same read-out and setting: the value for “H2N-Glu-Gly-Asp-Gly-Lys(CY™5)-COOH (H-EGDGK(Cy5)-OH) [Compound xxii]” was 4.18. “DLDLPTQQILVAR [tryptic yeast peptide identified after focusing in IPG strips 3.7-4.05]” displayed a pI-value in data set [1] of 3.830. Turning to “DVDLVNAAR [tryptic yeast peptide identified after focusing in IPG strips 3.7-4.05]”, the pI-value in data set [1] was found to be 3.800. Consider “DSDVTWLYGPIVR [tryptic yeast peptide identified after focusing in IPG strips 3.7-4.05]”, for which the pI-value in data set [1] stood at 3.800.

On to “DIDILVNNAGK [tryptic yeast peptide identified after focusing in IPG strips 3.7-4.05]”, for which the pI-value in data set [1] amounted to 3.828. For “H2N-Gly-Asp-Gly-Gly-Asp-Gly-Gly-Lys(CY™5)-COOH [xviii]”, in data set [2], the “pI (exp) pI/marker” value is recorded as 4.02. “DTDMVLIPAGVPR [tryptic yeast peptide identified after focusing in IPG strips 3.7-4.05]”: the pI-value in data set [1] came to 3.808.

“DLDAVNGSNGSK [tryptic yeast peptide identified after focusing in IPG strips 3.7-4.05]”: in data set [1], the pI-value is listed as 3.790.

For “DIDNGYTLSLMYK [tryptic yeast peptide identified after focusing in IPG strips 3.7-4.05]”, the pI-value in data set [1] is reported as 3.800. On the same count and under the same terms, in the case of “DSDYIPVVVVGNK [tryptic yeast peptide identified after focusing in IPG strips 3.7-4.05]” it was 3.825; in that of “DNDVQLAATK [tryptic yeast peptide identified after focusing in IPG strips 3.7-4.05]”, 3.800.
